These are literature values, as cited in publication PMC9760430, “A stapled chromogranin A-derived peptide homes in on tumors that express αvβ6 or αvβ8 integrins” (International Journal of Biological Sciences, 2023).

Data set [1] addresses integrin αvβ8 (Homo sapiens) (UniProt P06756). Particulars: cited from earlier work.
For data set [2], the target named is integrin αvβ6 (Homo sapiens) (UniProt P06756). As to conditions: cited from earlier work.
integrin αvβ6 (Homo sapiens), sequence (P06756 31-992, chain 1 of 2): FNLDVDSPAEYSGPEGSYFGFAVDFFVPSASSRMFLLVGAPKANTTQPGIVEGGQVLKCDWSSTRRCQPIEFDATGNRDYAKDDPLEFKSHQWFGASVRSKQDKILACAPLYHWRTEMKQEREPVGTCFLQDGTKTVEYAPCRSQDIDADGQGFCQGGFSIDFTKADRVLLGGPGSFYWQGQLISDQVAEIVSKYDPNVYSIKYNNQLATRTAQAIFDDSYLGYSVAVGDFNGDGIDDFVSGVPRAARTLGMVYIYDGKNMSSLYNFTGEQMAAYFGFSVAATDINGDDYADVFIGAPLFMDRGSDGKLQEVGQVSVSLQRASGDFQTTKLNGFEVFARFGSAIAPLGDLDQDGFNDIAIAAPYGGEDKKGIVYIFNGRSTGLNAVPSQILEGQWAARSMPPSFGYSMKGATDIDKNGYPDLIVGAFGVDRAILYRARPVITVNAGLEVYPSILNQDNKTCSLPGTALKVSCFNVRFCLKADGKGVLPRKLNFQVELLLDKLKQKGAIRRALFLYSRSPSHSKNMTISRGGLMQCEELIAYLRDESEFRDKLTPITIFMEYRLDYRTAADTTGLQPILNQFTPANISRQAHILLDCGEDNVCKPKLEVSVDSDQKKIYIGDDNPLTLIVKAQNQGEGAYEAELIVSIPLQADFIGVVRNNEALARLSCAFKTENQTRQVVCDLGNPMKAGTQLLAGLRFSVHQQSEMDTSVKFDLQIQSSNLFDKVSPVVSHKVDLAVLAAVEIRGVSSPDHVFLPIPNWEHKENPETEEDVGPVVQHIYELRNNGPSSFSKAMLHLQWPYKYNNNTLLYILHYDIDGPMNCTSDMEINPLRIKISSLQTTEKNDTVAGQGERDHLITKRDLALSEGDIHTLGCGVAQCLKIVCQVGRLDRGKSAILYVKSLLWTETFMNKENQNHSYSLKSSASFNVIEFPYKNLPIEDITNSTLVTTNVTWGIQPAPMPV
integrin αvβ6 (Homo sapiens), sequence (P18564 22-709, chain 2 of 2, further chain): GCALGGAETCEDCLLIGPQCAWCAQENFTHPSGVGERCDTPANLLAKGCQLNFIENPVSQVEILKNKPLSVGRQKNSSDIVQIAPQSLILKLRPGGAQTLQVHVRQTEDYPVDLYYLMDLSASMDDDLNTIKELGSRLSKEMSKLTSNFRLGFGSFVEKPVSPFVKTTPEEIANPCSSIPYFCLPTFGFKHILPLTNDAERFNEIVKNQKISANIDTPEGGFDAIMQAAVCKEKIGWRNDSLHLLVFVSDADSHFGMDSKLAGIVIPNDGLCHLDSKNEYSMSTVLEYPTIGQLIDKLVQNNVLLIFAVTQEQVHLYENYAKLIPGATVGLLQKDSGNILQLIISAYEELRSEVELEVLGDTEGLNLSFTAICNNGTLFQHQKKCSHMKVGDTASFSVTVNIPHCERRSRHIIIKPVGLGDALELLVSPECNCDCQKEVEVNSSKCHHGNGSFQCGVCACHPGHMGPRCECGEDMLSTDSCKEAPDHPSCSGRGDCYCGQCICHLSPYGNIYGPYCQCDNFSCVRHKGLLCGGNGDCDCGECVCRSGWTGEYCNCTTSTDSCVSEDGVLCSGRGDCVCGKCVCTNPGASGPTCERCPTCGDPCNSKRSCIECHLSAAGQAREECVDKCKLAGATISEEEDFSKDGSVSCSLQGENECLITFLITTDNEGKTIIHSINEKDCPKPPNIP

chromogranin A-derived peptide 5, sequence (P10645 57-81): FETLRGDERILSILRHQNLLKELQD
integrin αvβ8 (Homo sapiens), sequence (P06756 31-992, chain 1 of 2): as the sequence (P06756 31-992, chain 1 of 2) above
integrin αvβ8 (Homo sapiens), sequence (P26012 43-684, chain 2 of 2, further chain): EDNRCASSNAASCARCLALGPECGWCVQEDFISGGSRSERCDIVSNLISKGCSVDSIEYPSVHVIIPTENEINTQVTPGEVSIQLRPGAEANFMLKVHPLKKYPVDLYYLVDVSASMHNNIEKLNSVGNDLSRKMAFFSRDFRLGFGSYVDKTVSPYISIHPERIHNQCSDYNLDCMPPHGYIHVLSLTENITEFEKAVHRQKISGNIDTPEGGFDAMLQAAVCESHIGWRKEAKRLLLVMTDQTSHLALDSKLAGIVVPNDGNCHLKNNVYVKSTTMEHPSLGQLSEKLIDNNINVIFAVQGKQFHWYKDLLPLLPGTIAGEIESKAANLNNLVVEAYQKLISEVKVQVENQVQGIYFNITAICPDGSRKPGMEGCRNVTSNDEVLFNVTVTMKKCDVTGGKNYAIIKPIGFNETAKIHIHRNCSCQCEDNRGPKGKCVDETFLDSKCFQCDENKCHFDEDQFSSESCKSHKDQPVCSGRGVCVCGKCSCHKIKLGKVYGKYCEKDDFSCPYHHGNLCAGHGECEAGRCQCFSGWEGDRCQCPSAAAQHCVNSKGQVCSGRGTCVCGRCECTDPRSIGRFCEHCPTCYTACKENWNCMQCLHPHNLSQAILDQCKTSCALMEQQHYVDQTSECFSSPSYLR

For the substance “chromogranin A-derived peptide 5 (from UniProt P10645)”, the Ki in data set [1] is 3.2 nM; in data set [2] it was 0.6 nM.
